Experimental data taken from the RNAGym collection of RNA variant scans (doi:10.1073/pnas.2313332121).

B1: TPR t1 (parent)
chain: GACCAAUCUGCCCUCAGAGCUCGAGAACAUCUUCGGAUGCAGAGGAGGCAGGCUUCGGUGGCGCGAUAGCGCCAACGUCCUCAACCUCCAAUGCAUCCCACCACAUGAUGAUGCCUGAAGAGCCUUGGUUUUUUG

Variants of: B1
Experiment: polymerase ribozyme fitness, log enrichment relative to wild type (log ratio); higher = more active; in vitro selection for triplet polymerase activity
Summary of the method: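 A single round of triplicate in vitro selection, including frozen incubation at −7 °C, was applied to PCR-built, transcribed mutant libraries of each subunit of a heterodimeric triplet polymerase ribozyme. Illumina sequencing of input and output libraries retained genotypes with ≥10 input reads and ≥1 read per output. Fitness is the base-2 logarithm of genotype enrichment divided by wild-type enrichment, from inverse-variance-weighted replicate averages.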

Variant | polymerase ribozyme fitness (log ratio)
GACCAAUCUGCCCUCAGAGCUCGAGAACAUCUUCGGACGCAGAGGAGGCAGGCUUCUGUGGCGCGAUAGCGCCAACGUCCUCAACCUCCAAUGCAUCCCACCACAUGAUGAUGCCUCAAGAGCCUUGGUUUUUUG | -5.11
GACCAAUCUGCCCUCAGAGCUCGAGAACAUCUUCGGAUACAGAGGUGGCAGGCUUCGGUGGCGCGAUAGCGCCAACGACCUCAACCUCCAAUGCAUCCCACCACAUGAUGAUGCCUGAAGAGCCUCGGUUUUUUG | -3.53
GACCAAUCUGCCCUCAGAGCUCGAGAACAUCUUCGGACGCAGAGGAUGCAGGCUUCGGUGCCGCGAUAGCGCCAACGUCCUCAACCUCCAAUGCCUCCCACCACAUGAUGAUGCCUGAAGAGCCUUGGUUUUUUG | -3.89
GACCAAUCUGCCCUCAGAGCUCGAGAACAUCUUCGGACGCAGAGGAGGCAGGCUUCAGUGGCGCGAUAUCGCCAACGUCCUCAACCUCCAAUGCAACCCACCACAUGAUGAUGCCUGAAGAGCCUUGGUUUUUUG | -3.58
GACCAAUCUGCCCUCAGAGCUCGAGAACAUCUUCGGAGGCAGAGGAGGCAGGCUUCGGUGGCGCGAUAGCGCCAACGUCCUCAACCUCCAAUGCAUCCCACCACAUGAUGAUGCCUGAAGAGCCUUGCUUUUUUG | -2.66
GACCAAUCUGCCCUCAGAGCUCGAGAACAUCUUCGGAGGCAGAGGAGGCAGGCUUCGGUGUCGCGAUAGCGCCAACGUCCUCAACCUCCAAUGCAUCCCACCACAUGAUGAUGCCCGAAGAGCCUUGGUUUUUUG | -1.78
GACCAAUCUGCCCUCAGAGCUCGAGAACAUCUUCGGAGGCAGAGGAGGCAGGCUUCGGUGGCGCGAUAGCGCCAACGUCCUCAACCUCCAAUGCAUCCCACCACAUGAUGAUGCCCGAAGAGCCUUGGUUUUUUG | -2.06
GACCAAUCUGCCCUCAGAGCUCGAGAACAUCUUCGGAGGCAGAGGAGGCAGGCGUCGGUGGCGUGAUAGCGCCAACGUCCUCAACCUCCAAUGCAUCCCACCACAUGAUGAUGCCUGAAGAGCCUUGGUUUUUUG | -4.46
GACCAAUCUGCCCUCAGAGCUCGAGAACAUCUUCGGAGGCAGAGGAGGAAGGCCUCGGUGGCGCGAUAUCGCCAACGUCCUCAACCUCCAAUGCAUCCCACCAAAUGAUGAUGCCUGAAGAGCCUUGGUUUUUUG | -0.856
GACCAAUCUGCCCUCAGAGCUCGAGAACAUCUUCGGAGGCAGAGGAGGCAGGCUUCGGUGGCGCGAUAGCGCCAACGUCCUCAACCUCAAAUGCAACCCACCACAUGAUGAUGGCUGAAGAGCCUUGGUUUUUUG | -5.44
GACCAAUCUGCCCUCAGAGCUCGAGAACAUCUUCGGAAGCAGAGGAGGCAGGCUUCGGUGGCGCGAUAGCGCCAACGUCCUCAACCUCCAAUGCAUCCCACCACAUGAUGAUCCCUGAAGAGCCUUGGUUUUUUG | -2.81
GACCAAUCUGCCCUCAGAGCUCGAGAACAUCUUCGGACGCAUAGGAGGCAGGCUUCGGUGGGGCGAUAGCGCCAACGUCCUCAACCUCCAAUGCAUCCCACCACAUGAUGAUGCCUGAAGAGCCUUGGUUUUUUG | -5.61
GACCAAUCUGCCCUCAGAGCUCGAGAACAUCUUCGGAGGCAGUGGAGGCAGGCUUCGGUGGCGCGAUAGCGCCAACGUCCUCAACCCCCAAUGCAUCCCACCACAUGAUGAUGCCUGAAGAGCCUUGGUUUUUUG | -2.42
GACCAAUCUGCCCUCAGAGCUCGAGAACAUCUUCGGACGCAAAGGAGGCAGGCUUCGGUGGCGCGAUAGCGCCAACGUCCUCAACCUCCAAUGCAUCCCACCACAUGAUGAUGCCUGUAGAACCUUGGUUUUUUG | -3.31
GACCAAUCUGCCCUCAGAGCUCGAGAACAUCUUCGGACGCAGAGGAGGCUGGCUUCGGUGGCGCGAUAGCGCCAACGUCCUCAACCUCCAAUGCAUCCCACCACAUGAUGAUGCCUGAAGAGCCUUGGUUUUUUG | -0.941
GACCAAUCUGCCCUCAGAGCUCGAGAACAUCUUCGGAGGCAGGGGAGGCAGGCUUCGGUGGCGCGAUAGCGCCAACGUCCUCAACCUCCAAUGCAUCCCACCACAUGAUGAUGCCUGAAGAGCCUUGGUUUUUUG | -2.91
GACCAAUCUGCCCUCAGAGCUCGAGAACAUCUUCGGAGGCUGAGGAGGCAGGGUUCGGUGGAGCGAUAGCGCCAACGUCCUCAACCUCCAAUGCAUCCCACCACAUGAUGAUACCUGACGAGCCUUGGUUUUUUG | -5.91
GACCAAUCUGCCCUCAGAGCUCGAGAACAUCUUCGGAGGCAGAGGAGGCAGGCUUCGGUGGCGCGAUAGCGCCAACGUCCUCAACCUCCAAUGCAUCCCACCACAUGAUGAUGCGUGAAGAGCCUUGGUUUUUUG | -3.06
GACCAAUCUGCCCUCAGAGCUCGAGAACAUCUUCGGAUACAGAGGUGGCAGGCUUCGGUGGCGCGAUAGCGCCAACGUCCUCAACCUCCAAUGCAUCCCACCACAAGAUGAUGCCUGAAGAGCCUUGGUUUUUUG | -2.02
GACCAAUCUGCCCUCAGAGCUCGAGAACAUCUUCGGAUACAGUGGAGGCAGGCUUCGGUGGCGCGAUAGCGUGAACGUCCUCAACCUCCAAUGCAUCCCACCACAUGAUGAUGCGUGAAGAGCCUCGGUUUUUUG | -5.51
GACCAAUCUGCCCUCAGAGCUCGAGAACAUCUUCGGAGGCAGAGGAGGCAGGCUUCGGUGGCGCGAUACCGCCAACGUCCUCAACCUCCAAUGCAUCCCACCACAUGAUGACGCCUGAAGAGCCUUGGUUUUUUG | -1.03

Variant | polymerase ribozyme fitness (log ratio)
GACCAAUCUGCCCUCAGAGCUCGAGAACAUCUUCGGAAGCAGAGGAGGCAGGCUUCGGUGGCGCGAUAGCGCCAACGUCCUCAACCUCCAAUGCAUCCCACCACAUGAUGAUGCCUGAAGAGCCUUGGUUUUAUG | -0.815
GACCAAUCUGCCCUCAGAGCUCGAGAACAUCUUCGGAGGCAGUGGAGUCAGGCUUCGGUGGCGCGAUAGCGCCAACGUCCUCAACCUGCAAUGCAUCCCACCACAUGAUGAUGCCUGAAGAGCCUUGGUUUUUUG | -5.48
GACCAAUCUGCCCUCAGAGCUCGAGAACAUCUUCGGAAGCAGAGGAGGCAGGCGUCGGUGGCGCGAUAGCGCCAACGUCCUCAACCUCCAAUGCAUCCCACCACAUGAUGAUGCCUGAAGAGCCUUGGUUUUUUG | -0.848
GACCAAUCUGCCCUCAGAGCUCGAGAACAUCUUCGGAGGCAGAGGUGGCAGGCUUCGGUGACGCGAUAGCGCCAACGUCCUCAACCACCAAUGCAUCCCACCACAUGAUGAUGCCUGAAGAGCCUUGGUUUUUUG | -0.463
GACCAAUCUGCCCUCAGAGCUCGAGAACAUCUUCGGAGGCAGAGGAGGCAGGCUUCGGUGGCGCGAUAUCGCCAACGUCCUCAACCUCCAAUGCAUCCCACCACAUGAUGAUGCCUGAAGAGCCUUGGUUUUUUG | -0.236
GACCAAUCUGCCCUCAGAGCUCGAGAACAUCUUCGGAGGCAGAGGAGGCAGGCUUCGGUGGCGUGCUAGCGCCAACGUCCUCAACCUCCUCUGCAUCCCACCACAUGAUGAUGCCUGAAGAGCCUUGGUUUUUUG | -5.32
GACCAAUCUGCCCUCAGAGCUCGAGAACAUCUUCGGAAGCAGAGGAGGCAGGCUUCGCUGGCGCGAUAGCGCCAACGUCCUCAACCUCCAAUGCAUCCCACCACAUGAUGAUGCAUGAAGAGCCUUGGUUUUUUG | -1.1
GACCAAUCUGCCCUCAGAGCUCGAGAACAUCUUCGGACGCAGAGGAGGCAGGCUUCGGUGGCGCGAUAGCGCCAACGUCCUCAACCUCCAAUGCAUCCCACCACAUGACGAUGCCUGAAGAGCCUUGGUUUUUUG | -4.71
GACCAAUCUGCCCUCAGAGCUCGAGAACAUCUUCGGACGCAGAGAAGGCAGGCUUCGGUGGCGCGAUAGCGCCAACGUCCUCAACCUCCAAUGCAUCCCACCACAUGAUGAUCCCUGAAGAGCCCUGGUUUUUUG | -3.38
GACCAAUCUGCCCUCAGAGCUCGAGAACAUCUUCGGACGCAGAGGAGGCAGGCUUUGGUGGCGCGAUAGCGCCAACGUCCUCAGCCUCCAAUGCAUCCCACCACAUGAUGAUGCCUGAAGAGCCUUGGUUUUUUG | -1.53
GACCAAUCUGCCCUCAGAGCUCGAGAACAUCUUCGGACGCAGAGGAGGCAGGCUUCGGUGGCGCGAUAGCGCCAACGUCCUCAACCUCCCAUGCAUCCCACCACAUGAUGAUGCCUGAAGAGCCUUGGUUUUUUG | -1.49
GACCAAUCUGCCCUCAGAGCUCGAGAACAUCUUCGGAUACAGAGGUGGCAGGCUUCGGUGGCGCGAUAGCGCCAACGUCCUCAACCUCCAAUGCAUCCCACCACAUGAUGAUGCCUGAAGAGCCUUGGUUUUUUG | -1.28
GACCAAUCUGCCCUCAGAGCUCGAGAACAUCUUCGGAGGCAGAGGAGGGAGGCUUCGGUGGCGCGAUAGCGCCAACGUCCUCAACCUCCAAUGCAUCCCACCACAUGAUGAUGCCUGAAGAGCCUUGGUUUUUUG | -2.14
GACCAAUCUGCCCUCAGAGCUCGAGAACAUCUUCGGAAGCAGAGGAGGCAGGCUUCGGUGGCGCGAUAGCGCCAACGUCCUCAACCUCCAAUGCAUCCCACCACAUGAUGAUGCCUGAAGAGCCUUGGUUUCUUG | -0.329
GACCAAUCUGCCCUCAGAGCUCGAGAACAUCUUCGGAGGCAGAGGAGGCAGGCUUCGGUGGCGCGAUAGCGUCAACGUCCUCAACCUCCAAUGCAUCCCACCAUAUGAUGAUGCCUGAAGAGCCUUGGUUUUUUG | -1.14
GACCAAUCUGCCCUCAGAGCUCGAGAACAUCUUCGGAGGCAGAGGAGGCAGGCUUCGGUGGCGCGAUAGCGCCAACGUCCUUAACCUCCAAUGCAUCCCACCACAUGAUGAUGCCUGAAGAGCCUUGGUUUUUUG | -0.857
GACCAAUCUGCCCUCAGAGCUCGAGAACAUCUUCGGACGCAGGGGAGGCAGGCUUCGGUGGCGCGAUAGCGCUAACGUCCUCAACCUCCAAUACAUCCCACCACAUGAUGAUGCCUGAAGAGCCUUGGUUUUUUG | -4.56
GACCAAUCUGCCCUCAGAGCUCGAGAACAUCUUCGGAAGCAGAGGAGGCAGGCUUCGGUGGCGCGAUAACGCCAACGUCCUCAACCUCCAAUGCAUCCCACCACAUGAUGAUGCCUGAAGAGCCUUGGUUUUUUG | -4.51
GACCAAUCUGCCCUCAGAGCUCGAGAACAUCUUCGGACGCAGAGGAGGCAGGUUUCGGUGGCGCGAUAGCGCCAACGUCCUCAACCUCCAAUGCAUCCCACCACAUGAUGAUGCCAGAAGGGCCUUGGUUUUUUG | 0.589
GACCAAUCUGCCCUCAGAGCUCGAGAACAUCUUCGGAAGCAGAGGAGUCAGGCUUCGGUGGCGCGAUAGCGCCAACGUCCUCAACCUCCAAUGCAUCCCACCACAUGAUAAUGCCUGAAGAGCCUUGGUUUUUUG | -3.21
GACCAAUCUGCCCUCAGAGCUCGAGAACAUCUUCGGAGGCAGAGGAGGCAGGCUUCGGUGGCGUGAUAGCGCCAACGUCGUCAACCUCCAAUGCAUCCCACCACAUGAUGAUGCCUGAAGAGCCUUGGUUCUUUG | -6.8
